Substitutions are numbered along the chain they refer to.
B1: Ab48 (antibody, human IgG1, kappa, V domains shown)
VH: EVQLVQSGAEVKKPGASVKVSCKASGYTFTDYNIHWVRQAPGQGLEWIGYIYPNNDGTGYNQKFKSRATLTVDNSTSTAYMELRSLRSDDTAVYYCARGDGNYVGDMDYWGQGTTVTVSS
VL: DIQMTQSPSSLSASVGDRVTITCRASENIYSYLAWYQQKPGKPPKLLVYNAKTLAEGVPSRFSGSGSGTDFTLTISSLQPEDFATYYCQHHYATPFTFGQGTKLEIKR
notes: humanized from Ab8; G1; also called Ab3 HC.1a and Ab3 LC.1a
B2: LFA102 (antibody, human IgG1, kappa, V domains shown)
VH: EVQLVESGGGLVQPGGSLRLSCAVSGFTFSSYGMSWVRQAPGKRLEWVATVSSGGTYTYYPDSVKGRFTISRDNSKNTLYLQMNSLRAEDTAMYYCARHRGNYYATYYYAMDYWGQGTLVTVSS
VL: DIVLTQSPDSLAVSLGERATINCKASKSVSTSGYTYMHWYQQKPGQPPKLLIYLASNRESGVPDRFSGSGSGTDFTLTISPVQAEDVATYYCQHSGELPPSFGQGTKLEIKR
notes: humanized IgG1 kappa comparator (WO 2008022295)
B3: Ab40 (antibody, human IgG1, kappa)
heavy: not shown
light: DVVMTQTPLSLSVTPGQPASISCRSSQSLVHSNGNTYLHWYLQKPGQSPQLLIYKVSNRFSGVPDRFSGSGSGTDFTLKISRVEAEDVGVYYCSQSTHVPFTFGGGTKVEIKRTVAAPSVFIFPPSDEQLKSGTASVVCLLNNFYPREAKVQWKVDNALQSGNSQESVTEQDSKDSTYSLSSTLTLSKADYEKHKVYACEVTHQGLSSPVTKSFNRGEC
notes: humanized from Ab7; G1; also called Ab4 HC.1a and Ab4 LC.1b
B4: chAb5 (antibody, human IgG1, kappa, V domains shown)
VH: QVQLQQPGAELVRPGTSVKLSCKASGYTFTSFWMHWVKQRPGQGLEWIGVIDPSDTYTNYNQKFKGKATLTVDTSSSTAYMQLSSLTSEDSAVYYCARGDYSNWFTYWGQGTLVTVSA
VL: DVVMTQTPLSLPVSLGDQASISCRSSQRLVHSNGNTYLHWYLQKPGQSPKLLIYKVSNRFSGVPDRFSGSGSGTDFTLKISRVEAEDLGVYFCSQSTHVPWTFGGGTKLEIKT
notes: chimeric, murine variable and human G1/kappa constant regions
B5: chAb7 (antibody, human IgG1, kappa, V domains shown)
VH: QVQLQQPGAELVMPGTSVKLSCKASGYTFTSYWIHWVKQRPGQGLEWIGEIDPSDSYTNYNQKFKGKATLTVDRSSSTAYMQLSSLTSEDSAVYYCGRSFFTNWFAYWGQGTLVTVSA
VL: B4 VL with R28S, S81N, W101F, G105S
notes: as for B4

Tests used:
[1] = biological target: T1, human PRLR (Biacore antigen) (human, UniProt P16471 25-234, limits assumed); assay: SPR simultaneous binding; PRLR held by surface mAb chAb6
T1 construct: The construct injected over captured antibody is not described (a soluble form is likely); also called huPRLR
T1 sequence: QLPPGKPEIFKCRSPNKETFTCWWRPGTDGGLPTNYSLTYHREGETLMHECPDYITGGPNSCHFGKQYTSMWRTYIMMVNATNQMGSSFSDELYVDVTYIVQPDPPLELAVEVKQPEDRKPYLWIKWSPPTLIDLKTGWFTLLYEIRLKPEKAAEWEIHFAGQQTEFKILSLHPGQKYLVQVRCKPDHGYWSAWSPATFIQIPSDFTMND
Experimental: (§1) Running buffer was HBS-EP+ (10 mM Hepes, pH7.4, 150 mM NaCl, 3 mM EDTA, 0.05% surfactant). Assay was performed at 12° C. using Biacore T200 and CM5 sensor chips with anti-human IgG (Pierce) amine-coupled in all 4 flow cells to ˜2000 RU.
(§2) Separate test mAbs were captured in flowcells 2, 3 & 4 (flowcell 1 was reference, no test mAb). All 4 flowcells were then blocked by injection with isotype control mAb at 50 ug/ml. All 4 flowcells were then injected with antigen or buffer only (buffer only is for double referencing, done for each mAb pair individually). All 4 flowcells were then injected with 2nd test mAb at 10 ug/ml. All 4 flowcells were then regenerated with glycine, pH1.5.

[2] = biological target: T1, human PRLR (Biacore antigen); assay: SPR Biacore
Method in brief: (§3)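 Association rate, dissociation rate and dissociation constant were measured by surface plasmon resonance on a Biacore instrument. PRLR antigen was tested at 600 nM, 66.67 nM and 7.41 nM, a 3-point, 9-fold dilution series. Constants came from a 1:1 binding model fit (local Rmax, mass-transport term included) in Biacore T200 Evaluation Software.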

[3] = biological target: T2, cyno PRLR (Biacore antigen) (cyno, UniProt A0A2K5WXK1 25-234); assay: SPR Biacore
T2 construct: also called cyPRLR
T2 sequence: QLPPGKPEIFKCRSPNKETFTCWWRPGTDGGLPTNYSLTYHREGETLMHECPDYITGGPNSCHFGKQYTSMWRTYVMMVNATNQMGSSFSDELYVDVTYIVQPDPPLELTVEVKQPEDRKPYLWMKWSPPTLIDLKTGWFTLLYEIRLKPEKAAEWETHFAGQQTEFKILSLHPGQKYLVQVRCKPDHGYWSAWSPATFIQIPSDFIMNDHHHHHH
Method in brief: as §3

[4] = biological target: T3, murine PRLR (Biacore antigen) (murine, UniProt Q08501 20-229, limits assumed); assay: SPR Biacore
T3 construct: also called muPRLR
T3 sequence (looked up): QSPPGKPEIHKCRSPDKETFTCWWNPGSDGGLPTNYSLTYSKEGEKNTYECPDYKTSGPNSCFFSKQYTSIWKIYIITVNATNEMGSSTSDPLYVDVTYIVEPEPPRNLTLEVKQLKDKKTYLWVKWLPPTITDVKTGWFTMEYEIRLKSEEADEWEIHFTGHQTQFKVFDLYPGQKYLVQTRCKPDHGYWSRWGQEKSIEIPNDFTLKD
Method in brief: as §3

[5] = biological target: T1, human PRLR (Biacore antigen); assay: SPR simultaneous binding; PRLR held by surface mAb Ab21
Experimental: as §1, §2

[6] = biological target: T1, human PRLR (Biacore antigen); assay: SPR simultaneous binding; PRLR held by surface mAb Ab19
Experimental: as §1, §2

[7] = biological target: T4, mouse PRLR on Baf3-mPRLR cells (mouse, UniProt Q08501 20-608); assay: cell-based or functional assay
T4 sequence (looked up): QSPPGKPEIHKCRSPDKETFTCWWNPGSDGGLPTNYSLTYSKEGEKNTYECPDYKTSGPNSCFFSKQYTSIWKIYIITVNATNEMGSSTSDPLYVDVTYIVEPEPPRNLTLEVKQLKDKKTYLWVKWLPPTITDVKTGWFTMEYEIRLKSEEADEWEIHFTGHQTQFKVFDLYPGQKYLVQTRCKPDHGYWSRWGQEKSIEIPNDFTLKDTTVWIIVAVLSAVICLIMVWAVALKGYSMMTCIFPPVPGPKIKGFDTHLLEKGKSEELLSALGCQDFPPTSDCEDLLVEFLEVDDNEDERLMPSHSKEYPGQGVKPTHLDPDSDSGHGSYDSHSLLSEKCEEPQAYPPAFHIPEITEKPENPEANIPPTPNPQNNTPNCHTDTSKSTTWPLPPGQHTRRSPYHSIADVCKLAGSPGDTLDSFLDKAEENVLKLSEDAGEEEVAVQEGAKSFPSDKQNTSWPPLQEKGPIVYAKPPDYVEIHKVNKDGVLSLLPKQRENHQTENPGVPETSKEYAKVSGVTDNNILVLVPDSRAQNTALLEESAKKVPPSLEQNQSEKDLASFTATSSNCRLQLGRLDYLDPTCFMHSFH

[8] = biological target: T1, human PRLR (Biacore antigen); assay: SPR simultaneous binding; PRLR held by surface mAb Ab30
Experimental: as §1, §2

[9] = biological target: T1, human PRLR (Biacore antigen); assay: SPR simultaneous binding; PRLR held by surface mAb Ab39
Experimental: as §1, §2

Binder	solution mAb binding, % of PRLR binding [1]	Kd [2]	koff [2]	kon [2]	Kd [3]	koff [3]	kon [3]	Kd [4]	koff [4]	kon [4]	solution mAb binding, % of PRLR binding [5]	solution mAb binding, % of PRLR binding [6]	Baf3-mPRLR proliferation IC50 [7]	solution mAb binding, % of PRLR binding [8]	solution mAb binding, % of PRLR binding [9]
B1	-2%	0.18 nM	9.84e-05 s⁻¹	546000 M⁻¹ s⁻¹	9.77 nM	0.00563 s⁻¹	576000 M⁻¹ s⁻¹	453 nM	0.0983 s⁻¹	217000 M⁻¹ s⁻¹	-1%	-1%	> 30 µg/mL	-1%	-2%
B2	26%	1.3 nM	0.00073 s⁻¹	560000 M⁻¹ s⁻¹	11 nM	0.0095 s⁻¹	880000 M⁻¹ s⁻¹	26 nM	0.016 s⁻¹	620000 M⁻¹ s⁻¹	21%	19%	> 30 µg/mL	35%	36%
B3	-1%	5.38 nM	0.000823 s⁻¹	153000 M⁻¹ s⁻¹	5.38 nM	0.000719 s⁻¹	134000 M⁻¹ s⁻¹	1190 nM	0.0534 s⁻¹	45000 M⁻¹ s⁻¹	-1%	-1%	> 30 µg/mL	-1%	-2%
B4	-1%	0.558 nM	0.000199 s⁻¹	356000 M⁻¹ s⁻¹	0.671 nM	0.000223 s⁻¹	333000 M⁻¹ s⁻¹	13.8 nM	0.00277 s⁻¹	200000 M⁻¹ s⁻¹	-1%	0%	2.51 µg/mL	-1%	-2%
B5	-1%	0.18 nM	4.46e-05 s⁻¹	248000 M⁻¹ s⁻¹	0.154 nM	3.61e-05 s⁻¹	235000 M⁻¹ s⁻¹	44.9 nM	0.00357 s⁻¹	79500 M⁻¹ s⁻¹	-1%	-1%	3.6 µg/mL	-1%	-2%

From patent publication US20170022281A1 (AbbVie / Abbott, published 2017)
